B1: Effector protein HopAB2 (Pseudomonas syringae pv. tomato (strain DC3000)), Q8RSY1 (parent)
chain: MAGINRAGPSGAYFVGHTDPEPVSGQAHGSGSGASSSNSPQVQPRPSNTPPSNAPAPPPTGRERLSRSTALSRQTREWLEQGMPTAEDASVRRRPQVTADAATPRAEARRTPEATADASAPRRGAVAHANSIVQQLVSEGADISHTRNMLRNAMNGDAVAFSRVEQNIFRQHFPNMPMHGISRDSELAIELRGALRRAVHQQAASAPVRSPTPTPASPAASSSGSSQRSLFGRFARLMAPNQGRSSNTAASQTPVDRSPPRVNQRPIRVDRAAMRNRGNDEADAALRGLVQQGVNLEHLRTALERHVMQRLPIPLDIGSALQNVGINPSIDLGESLVQHPLLNLNVALNRMLGLRPSAERAPRPAVPVAPATASRRPDGTRATRLRVMPEREDYENNVAYGVRLLNLNPGVGVRQAVAAFVTDRAERPAVVANIRAALDPIASQFSQLRTISKADAESEELGFKDAADHHTDDVTHCLFGGELSLSNPDQQVIGLAGNPTDTSQPYSQEGNKDLAFMDMKKLAQFLAGKPEHPMTRETLNAENIAKYAFRIVP

Variants of: B1
Conditions: with rs27a_sollc UBI3, P62980
K512R;K529R was tested, and the “effect of a mutation on the interaction” value was “decreasing interaction strength”.

Source: IntAct's records for PubMed 16477026
